Key:
Experiment in all cases: holdup assay
Design in all cases: key: below the threshold = too weak to quantify, mostly under pKd 3.1 to 4
Conditions in all cases: plain residues with an end cap or a label only (N-terminal biotin on a linker: ado-ado)
Inadl_4, Q8NI35 = biological target: Inadl_4, Q8NI35
SNTA1, Q13424 = biological target: T1, SNTA1, Q13424
T1 sequence (Q13424 82-180, limits assumed, looked up): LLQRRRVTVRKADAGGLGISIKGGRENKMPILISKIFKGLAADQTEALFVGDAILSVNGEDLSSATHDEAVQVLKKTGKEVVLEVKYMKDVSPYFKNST

CARD11, Q9BXL7 = biological target: T2, CARD11, Q9BXL7
T2 sequence (Q9BXL7 662-765, limits assumed, looked up): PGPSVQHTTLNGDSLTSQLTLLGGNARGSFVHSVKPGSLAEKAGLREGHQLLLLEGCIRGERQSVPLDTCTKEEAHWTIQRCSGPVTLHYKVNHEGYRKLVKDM

SYNJ2BP, P57105 = biological target: T3, SYNJ2BP, P57105
T3 sequence (P57105 8-110, limits assumed, looked up): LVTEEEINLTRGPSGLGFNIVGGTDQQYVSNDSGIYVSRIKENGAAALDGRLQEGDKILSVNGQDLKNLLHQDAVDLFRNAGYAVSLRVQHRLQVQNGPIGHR

SCRIB_2, Q14160 = biological target: SCRIB_2, Q14160
DLG2_3, Q15700 = biological target: DLG2_3, Q15700
PCLO, Q9Y6V0 = biological target: T4, PCLO, Q9Y6V0
T4 sequence (Q9Y6V0 4491-4600, limits assumed, looked up): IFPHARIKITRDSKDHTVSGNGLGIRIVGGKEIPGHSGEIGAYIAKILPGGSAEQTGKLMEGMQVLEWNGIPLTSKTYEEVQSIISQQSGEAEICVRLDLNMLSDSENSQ

PARD3_3, Q8TEW0 = biological target: PARD3_3, Q8TEW0
NHERF2_2, Q15599 = biological target: NHERF2_2, Q15599
ARHGEF12, Q9NZN5-2 = biological target: ARHGEF12, Q9NZN5-2
MAST1, Q9Y2H9 = biological target: MAST1, Q9Y2H9
NHERF4_1, Q86UT5-2 = biological target: NHERF4_1, Q86UT5-2
MAGI2_5, Q86UL8 = biological target: MAGI2_5, Q86UL8
TJP1_2, Q07157 = biological target: TJP1_2, Q07157
MPP7, Q5T2T1 = biological target: T5, MPP7, Q5T2T1
T5 sequence (Q5T2T1 134-230, limits assumed, looked up): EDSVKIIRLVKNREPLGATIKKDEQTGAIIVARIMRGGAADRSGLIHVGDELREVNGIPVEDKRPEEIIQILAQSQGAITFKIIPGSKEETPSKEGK

NOS1, P29475 = biological target: NOS1, P29475
LNX2_3, Q8N448 = biological target: T6, LNX2_3, Q8N448
T6 sequence (Q8N448 463-564, limits assumed, looked up): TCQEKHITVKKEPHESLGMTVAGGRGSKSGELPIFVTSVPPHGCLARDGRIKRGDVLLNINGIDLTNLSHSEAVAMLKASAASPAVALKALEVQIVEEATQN

SNTG2, Q9NY99 = biological target: T7, SNTG2, Q9NY99
T7 sequence (Q9NY99 68-166, limits assumed, looked up): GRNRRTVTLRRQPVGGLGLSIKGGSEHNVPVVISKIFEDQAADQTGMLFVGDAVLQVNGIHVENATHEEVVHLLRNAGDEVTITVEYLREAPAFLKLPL

SNTG1, Q9NSN8 = biological target: T8, SNTG1, Q9NSN8
T8 sequence (Q9NSN8 52-150, limits assumed, looked up): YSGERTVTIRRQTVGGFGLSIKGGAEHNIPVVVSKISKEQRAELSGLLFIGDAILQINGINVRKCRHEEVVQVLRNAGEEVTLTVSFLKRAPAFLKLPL

Inadl_9, Q8NI35 = biological target: Inadl_9, Q8NI35
Inadl_3, Q8NI35 = biological target: Inadl_3, Q8NI35
HTRA3, P83110 = biological target: T9, HTRA3, P83110
T9 sequence (P83110 354-453, limits assumed, looked up): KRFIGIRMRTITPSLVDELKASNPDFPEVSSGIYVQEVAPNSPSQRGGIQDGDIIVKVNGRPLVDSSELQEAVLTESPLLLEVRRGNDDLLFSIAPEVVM

HTRA4, P83105 = biological target: T10, HTRA4, P83105
T10 sequence (P83105 378-476, limits assumed, looked up): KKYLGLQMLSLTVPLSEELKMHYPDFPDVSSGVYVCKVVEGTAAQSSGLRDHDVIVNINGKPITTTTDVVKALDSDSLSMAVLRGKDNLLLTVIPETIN

IL16_1, Q14005 = biological target: IL16_1, Q14005
AHNAK1, Q09666 = biological target: AHNAK1, Q09666
PARD3B_1, Q8TEW8 = biological target: T11, PARD3B_1, Q8TEW8
T11 sequence (Q8TEW8 196-299, limits assumed, looked up): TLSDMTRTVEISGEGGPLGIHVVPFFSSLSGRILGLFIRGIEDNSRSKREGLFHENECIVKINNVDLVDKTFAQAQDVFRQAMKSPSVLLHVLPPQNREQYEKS

ARHGEF12, Q9NZN5-2, sequence (Q9NZN5 other isoform, or with tags, fused parts or gaps): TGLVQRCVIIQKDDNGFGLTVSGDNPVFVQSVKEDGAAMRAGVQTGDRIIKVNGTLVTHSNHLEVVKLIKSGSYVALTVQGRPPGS
NHERF2_2, Q15599, sequence (Q15599 142-238): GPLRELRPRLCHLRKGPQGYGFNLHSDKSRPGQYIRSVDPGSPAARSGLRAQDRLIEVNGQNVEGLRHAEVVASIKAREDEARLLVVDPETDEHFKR
AHNAK1, Q09666, sequence (Q09666 4-100): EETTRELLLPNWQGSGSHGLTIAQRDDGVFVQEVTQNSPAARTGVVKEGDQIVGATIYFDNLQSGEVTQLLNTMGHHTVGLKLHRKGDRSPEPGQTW
NHERF4_1, Q86UT5-2, sequence (Q86UT5 other isoform, or with tags, fused parts or gaps): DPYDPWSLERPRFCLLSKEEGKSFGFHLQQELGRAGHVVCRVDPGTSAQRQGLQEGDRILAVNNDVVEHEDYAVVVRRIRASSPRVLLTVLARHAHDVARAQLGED
Inadl_9, Q8NI35, sequence (Q8NI35 1530-1615): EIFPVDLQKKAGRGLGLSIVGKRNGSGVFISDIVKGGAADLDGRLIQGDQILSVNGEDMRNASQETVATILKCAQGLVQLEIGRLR
Inadl_4, Q8NI35, sequence (Q8NI35 547-651): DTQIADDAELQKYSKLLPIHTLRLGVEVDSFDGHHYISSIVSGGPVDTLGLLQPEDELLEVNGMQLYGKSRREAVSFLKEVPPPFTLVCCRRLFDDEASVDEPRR
NOS1, P29475, sequence (P29475 9-101): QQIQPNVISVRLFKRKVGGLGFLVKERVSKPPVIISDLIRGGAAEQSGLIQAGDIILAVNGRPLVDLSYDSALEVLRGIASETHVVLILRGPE
MAST1, Q9Y2H9, sequence (Q9Y2H9 962-1065): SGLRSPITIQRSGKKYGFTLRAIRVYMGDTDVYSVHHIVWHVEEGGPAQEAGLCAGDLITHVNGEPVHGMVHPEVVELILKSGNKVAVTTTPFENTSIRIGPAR
MAGI2_5, Q86UL8, sequence (Q86UL8 915-1017): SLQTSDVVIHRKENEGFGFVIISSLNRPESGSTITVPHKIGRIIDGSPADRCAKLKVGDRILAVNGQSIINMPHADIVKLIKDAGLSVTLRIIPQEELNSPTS
PARD3_3, Q8TEW0, sequence (Q8TEW0 582-685): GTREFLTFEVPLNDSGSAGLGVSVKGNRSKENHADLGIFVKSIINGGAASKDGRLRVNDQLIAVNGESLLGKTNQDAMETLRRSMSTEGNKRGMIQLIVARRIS
Inadl_3, Q8NI35, sequence (Q8NI35 359-469): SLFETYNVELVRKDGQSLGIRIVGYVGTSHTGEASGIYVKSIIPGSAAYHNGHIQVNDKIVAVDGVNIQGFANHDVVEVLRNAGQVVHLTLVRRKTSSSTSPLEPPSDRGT
IL16_1, Q14005, sequence (Q14005 210-306): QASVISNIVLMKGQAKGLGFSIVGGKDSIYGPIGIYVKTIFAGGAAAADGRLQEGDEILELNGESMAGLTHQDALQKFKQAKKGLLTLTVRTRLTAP
TJP1_2, Q07157, sequence (Q07157 181-274): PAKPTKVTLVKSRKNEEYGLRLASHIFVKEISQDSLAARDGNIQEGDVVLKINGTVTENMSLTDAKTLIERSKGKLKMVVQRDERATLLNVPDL
SCRIB_2, Q14160, sequence (Q14160 857-960): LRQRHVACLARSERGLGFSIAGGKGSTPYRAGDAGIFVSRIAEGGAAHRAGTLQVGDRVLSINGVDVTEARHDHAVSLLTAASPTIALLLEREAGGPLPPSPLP

In the case of KPDKQEEFYA [SDC3, O75056], the pKd (Inadl_4, Q8NI35) is reported as “below the threshold”, the pKd (SNTA1, Q13424) is reported as “below the threshold” and the pKd (CARD11, Q9BXL7) is reported as “below the threshold”. The pKd (SYNJ2BP, P57105) was “below the threshold”, the pKd (SCRIB_2, Q14160) was “below the threshold” and the pKd (DLG2_3, Q15700) was 3.64. For the same binder, the pKd (PCLO, Q9Y6V0) was “below the threshold”, the pKd (PARD3_3, Q8TEW0) was “below the threshold” and the pKd (NHERF2_2, Q15599) was “below the threshold”. The pKd (ARHGEF12, Q9NZN5-2) was “below the threshold”, the pKd (MAST1, Q9Y2H9) was 3.64 and the pKd (NHERF4_1, Q86UT5-2) was “below the threshold”. The pKd (MAGI2_5, Q86UL8) was “below the threshold”, the pKd (TJP1_2, Q07157) was “below the threshold” and the pKd (MPP7, Q5T2T1) was “below the threshold”. For the same binder, the pKd (NOS1, P29475) was “below the threshold”, the pKd (LNX2_3, Q8N448) was “below the threshold” and the pKd (SNTG2, Q9NY99) was “below the threshold”. The pKd (SNTG1, Q9NSN8) was “below the threshold”, the pKd (Inadl_9, Q8NI35) was “below the threshold” and the pKd (Inadl_3, Q8NI35) was “below the threshold”. For the same binder, the pKd (HTRA3, P83110) was 4.41, the pKd (HTRA4, P83105) was “below the threshold” and the pKd (IL16_1, Q14005) was “below the threshold”. For the same binder, the pKd (AHNAK1, Q09666) was “below the threshold” and the pKd (PARD3B_1, Q8TEW8) was 4.65.

In the case of FVFESRKEIL [TBPL1, P62380], the pKd (Inadl_4, Q8NI35) is reported as “below the threshold”, the pKd (SNTA1, Q13424) is reported as “below the threshold” and the pKd (CARD11, Q9BXL7) is reported as “below the threshold”. For the same binder, the pKd (SYNJ2BP, P57105) was “below the threshold”, the pKd (SCRIB_2, Q14160) was “below the threshold” and the pKd (DLG2_3, Q15700) was “below the threshold”. The pKd (PCLO, Q9Y6V0) was “below the threshold”, the pKd (PARD3_3, Q8TEW0) was “below the threshold” and the pKd (NHERF2_2, Q15599) was “below the threshold”. For the same binder, the pKd (ARHGEF12, Q9NZN5-2) was “below the threshold”, the pKd (MAST1, Q9Y2H9) was 4.21 and the pKd (NHERF4_1, Q86UT5-2) was 4.08. For the same binder, the pKd (MAGI2_5, Q86UL8) was “below the threshold”, the pKd (TJP1_2, Q07157) was “below the threshold” and the pKd (MPP7, Q5T2T1) was “below the threshold”. The pKd (NOS1, P29475) was 3.68, the pKd (LNX2_3, Q8N448) was “below the threshold” and the pKd (SNTG2, Q9NY99) was “below the threshold”. The pKd (SNTG1, Q9NSN8) was “below the threshold”, the pKd (Inadl_9, Q8NI35) was “below the threshold” and the pKd (Inadl_3, Q8NI35) was “below the threshold”. For the same binder, the pKd (HTRA3, P83110) was “below the threshold”, the pKd (HTRA4, P83105) was “below the threshold” and the pKd (IL16_1, Q14005) was “below the threshold”. The pKd (AHNAK1, Q09666) was “below the threshold” and the pKd (PARD3B_1, Q8TEW8) was 4.12.

DSEEELPTRL [GRK6, P43250] was tested, and the pKd (Inadl_4, Q8NI35) was “below the threshold”, the pKd (SNTA1, Q13424) was “below the threshold” and the pKd (CARD11, Q9BXL7) was “below the threshold”. For the same binder, the pKd (SYNJ2BP, P57105) was 3.5, the pKd (SCRIB_2, Q14160) was “below the threshold” and the pKd (DLG2_3, Q15700) was “below the threshold”. For the same binder, the pKd (PCLO, Q9Y6V0) was “below the threshold”, the pKd (PARD3_3, Q8TEW0) was 4.09 and the pKd (NHERF2_2, Q15599) was 4.51. For the same binder, the pKd (ARHGEF12, Q9NZN5-2) was 3.57, the pKd (MAST1, Q9Y2H9) was 4.19 and the pKd (NHERF4_1, Q86UT5-2) was 4.22. For the same binder, the pKd (MAGI2_5, Q86UL8) was “below the threshold”, the pKd (TJP1_2, Q07157) was “below the threshold” and the pKd (MPP7, Q5T2T1) was “below the threshold”. For the same binder, the pKd (NOS1, P29475) was 3.61, the pKd (LNX2_3, Q8N448) was “below the threshold” and the pKd (SNTG2, Q9NY99) was 3.57. For the same binder, the pKd (SNTG1, Q9NSN8) was “below the threshold”, the pKd (Inadl_9, Q8NI35) was 3.69 and the pKd (Inadl_3, Q8NI35) was “below the threshold”. For the same binder, the pKd (HTRA3, P83110) was “below the threshold”, the pKd (HTRA4, P83105) was 3.92 and the pKd (IL16_1, Q14005) was “below the threshold”. The pKd (AHNAK1, Q09666) was “below the threshold” and the pKd (PARD3B_1, Q8TEW8) was 4.51.

In the case of RDYTQSSSSL [GRM5, P41594], the pKd (Inadl_4, Q8NI35) is reported as “below the threshold”, the pKd (SNTA1, Q13424) is reported as “below the threshold” and the pKd (CARD11, Q9BXL7) is reported as “below the threshold”. The pKd (SYNJ2BP, P57105) was 3.82, the pKd (SCRIB_2, Q14160) was “below the threshold” and the pKd (DLG2_3, Q15700) was “below the threshold”. For the same binder, the pKd (PCLO, Q9Y6V0) was “below the threshold”, the pKd (PARD3_3, Q8TEW0) was “below the threshold” and the pKd (NHERF2_2, Q15599) was 4.52. For the same binder, the pKd (ARHGEF12, Q9NZN5-2) was 4.28, the pKd (MAST1, Q9Y2H9) was 4.67 and the pKd (NHERF4_1, Q86UT5-2) was 4.13. For the same binder, the pKd (MAGI2_5, Q86UL8) was “below the threshold”, the pKd (TJP1_2, Q07157) was “below the threshold” and the pKd (MPP7, Q5T2T1) was “below the threshold”. The pKd (NOS1, P29475) was “below the threshold”, the pKd (LNX2_3, Q8N448) was “below the threshold” and the pKd (SNTG2, Q9NY99) was “below the threshold”. The pKd (SNTG1, Q9NSN8) was “below the threshold”, the pKd (Inadl_9, Q8NI35) was “below the threshold” and the pKd (Inadl_3, Q8NI35) was “below the threshold”. The pKd (HTRA3, P83110) was “below the threshold”, the pKd (HTRA4, P83105) was 3.85 and the pKd (IL16_1, Q14005) was “below the threshold”. For the same binder, the pKd (AHNAK1, Q09666) was “below the threshold” and the pKd (PARD3B_1, Q8TEW8) was 3.82.
